Paper PMC3876883

Legend:
Assay in all cases: single-particle photobleaching
[1] = biological target: WT–K2P9, tandem subunit of wild-type K2P1 and K2P9 (human) (UniProt O00180)
[2] = biological target: WT–K2P3, tandem subunit of wild-type K2P1 and K2P3 (human) (UniProt O00180)
[3] = biological target: K2P3–WT, tandem subunit of K2P3 and wild-type K2P1 (human) (UniProt O14649)
[4] = biological target: K2P9–WT, tandem subunit of K2P9 and wild-type K2P1 (human) (UniProt Q9NPC2)
Chain of UniProt Q9NPC2 (Q9NPC2 whole entry, looked up, tested part not stated): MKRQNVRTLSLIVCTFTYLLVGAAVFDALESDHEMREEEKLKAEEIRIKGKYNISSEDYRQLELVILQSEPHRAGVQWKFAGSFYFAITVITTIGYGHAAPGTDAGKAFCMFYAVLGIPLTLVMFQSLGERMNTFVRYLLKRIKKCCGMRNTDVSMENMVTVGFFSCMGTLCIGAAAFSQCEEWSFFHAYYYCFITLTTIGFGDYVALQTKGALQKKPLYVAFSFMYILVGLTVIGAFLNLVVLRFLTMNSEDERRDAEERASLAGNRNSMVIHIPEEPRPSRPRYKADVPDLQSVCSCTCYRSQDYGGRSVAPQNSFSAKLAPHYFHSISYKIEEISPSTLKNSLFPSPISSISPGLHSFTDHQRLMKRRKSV

Chain of UniProt O14649 (O14649 whole entry, looked up, tested part not stated): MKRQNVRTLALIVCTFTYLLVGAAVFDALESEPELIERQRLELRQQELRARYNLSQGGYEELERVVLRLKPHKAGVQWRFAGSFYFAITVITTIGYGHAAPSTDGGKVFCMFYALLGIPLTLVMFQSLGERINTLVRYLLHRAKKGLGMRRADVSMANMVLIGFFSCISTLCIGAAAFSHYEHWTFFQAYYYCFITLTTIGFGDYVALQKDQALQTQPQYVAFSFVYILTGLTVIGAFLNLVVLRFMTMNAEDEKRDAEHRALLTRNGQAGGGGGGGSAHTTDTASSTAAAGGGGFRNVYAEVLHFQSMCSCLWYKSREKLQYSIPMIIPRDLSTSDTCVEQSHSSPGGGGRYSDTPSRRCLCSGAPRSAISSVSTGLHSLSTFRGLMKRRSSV

GFP-SUMO1 (from UniProt P63165 1-97) (natural protein)
1: stoichiometry N (bleaching step per particle) [1] | stoichiometry N (bleaching step per particle) [2] | stoichiometry N (SUMO1 per channel) [3] | stoichiometry N (SUMO1 per channel) [4]
